This note sets out measurements from the DeepSol protein solubility set.

A short description of this series: soluble on expression in E. coli; label from the status in PepcDB or PDB records.
For “MSHQSPPIAEVDATDDMHEALFAKRGCCFLMPCLASSQPSTRGGSVWWQRITTVDKLEPDERWWIRGWRRMREWSELVAGPRWKTYIRRFGRSNCCGGGGGRVGNSSGGCGGGAMPNRSSDQGKFRYDQLSYSLNFDDGNQTGHFDDEFPYRDYSMRFAAPSLPVSTKCSIDFDSDIDNK”, the “soluble on expression in E. coli” value is “soluble”.

Consider “GPGSMAVPDDNAEEVELLLSISPEVVCRDPTHSSTLVFLLPFRFVLHVTLPPRGYPDVSRPSLFVAAGPNAHLVNQFSSQLNKALREEVPLGGPMLLHIFTLAQDIATELQRTREAEAQEAKARREAMESEAQLALAEREASSVEVWASDAITDRKSKFVAHMARVDSEAAVREVVMHLRSQKHIAEAAHPTIYAYRFTDSSGVVHHDSDDDGETGAASRIMFLLEQMKVDGYVVVVTRWFGGVLLGPDRFKHIMEVARSILLTIPQREKERGVRDWQDRQ”, for which the “soluble on expression in E. coli” value is on record as “soluble”.

For the sequence “MPAWAARLGASRDQQRALEEERSRTQAALQVMPHMLIELDADERLLRGHPGWLDRLPTLGPMAPGQGLQDFLPVDLATEVRRVLAEVETTGAPVSRDWQVRQAGARVWLAISAARLPPLA”, the “soluble on expression in E. coli” value is “not soluble”. “MQPQKNVTNKIAIHATTATVWDALVNPAKTKVYMFGCETVSDWKVGSELLWRGQHEGEDMVFVKGKILAIKPNKLLTYTVIDPFASYPDIPENYLNVTYKLEEQGPDTILTVTQDGFESAADGEKRYQDVNNKGEGWNPILVQIKALVESIQNLEHHHHHH”: the “soluble on expression in E. coli” value is “soluble”. As for “NAVHFGAGNIGRGFIGKLLADAEVEVTFADVDVPLVDQLSHKQEYKVKVVGTECKIDTVTHVTAVNSASEDVIDRIVKTDLVTTAVGPNVLDIIAKTIAKGIAKRFEAGNDAPLNIIACENMVRGTTHLKGEVYKHLDKSLHAKADELVGFVDSAVDRIVPPAEAANDDPLEVTVESFSEWIVDEQQFKGDIPNIAGMEKTNN”, the “soluble on expression in E. coli” value is “soluble”. On to “MAWMEVRGKRFEILVRPELAFRYKEKGDVDLEDVLWTDTIYRDVRKGLKASPEEVKKAFGTSDPRRVAEKILKEGEIQLTEEQRRRLLEAKRRQIISYIARNAIDPTTGRPIPEARIEAALEEVRFPINLWRDAESQAVEAVRLIARVMPIRLARALLEVKIPPPHSGRAYQALMRMGEVKKADWLPDGSLKAELEIPAGAQVEVTSRIQALARGAAEVKVKKVAAAAAAALEHHHHHH”, for which the “soluble on expression in E. coli” value is on record as “soluble”.

As for “MKVIIDGEVRTLKAAWYEDGEVKLIDQRELPDKIKIFSAKNSDDIAYAIKNMVVRGAPAIGVTAAYGLAMASKNGEDMNKAKEKIRATRPTAYDLFKAIRYMEVNGYDMNAARRYAMEIEGRSKKIGELGNELIRNGAKILTHCNAGALAVLDWGTALSPMRIAHNEGKNIFVFVDETRPRLQGAKLTAWELAQEGIDHAIIADNAAGFYMRRKEIDLVIVGADRIASNGDFANKIGTYEKAVLAKVNGIPFYVAAPGSTFDFSIRSGDEIPIEERDENEVLEINGIRIGPNESHSKNPAFDVTPNEYVTGFITEYGIFKPNELNKLKDLMDKDLFMNIK”, the “soluble on expression in E. coli” value was “not soluble”. “AHHHHHHGSDLERALNAFHSMKVNQLTPPCSQMPIVEEDSPIIDVLKLLRTRHHVWVVNNRKDMKLVGIIRYLDIIDIFLPPKGARLGAVSSVFKSILSGAEKAGDIMERNFLTINEDATVLEALEKMKRYKIQILALIDEEGKLKGEISLRILINEFLRLIRVGGG”: the “soluble on expression in E. coli” value is on record as “soluble”. As to “MYQLTVFYDGTCPLCAKEMRALKQQDKNNVIKTIDIYSEVFSEYSNIDPKAANTVLHALNQKGELILGLDVTYLAWKLVGKGWLYAPLRWPGIKVIADWCYLHFAKNRYRVSYWLTGVSRCNKTSCSKLEHHHHHH”, the “soluble on expression in E. coli” value was “not soluble”. As for “TVDKRYLNDEHFIDPELVSQRAAPLTEADKQILADKSLGYRVLNLTVDTYNDATTSRWHRSIGGYHAAKLQRYQDLIEHQLSKGNREVVNMLNTKYIIVPGENNRPSPMSNPDAYGPAWPAGSIRWVGNANEEMMALDSNRLTRDIAVVDERFSSESLKRLPALTDSTASISLKEYAPNRQVYEAVSTQPMLGIFSEIYYPHGWTATIDNQAVPIIRANYILRALEVPAGRHKIEFRFDPKSLHITEAIAKT”, the “soluble on expression in E. coli” value is on record as “not soluble”.

Consider “MPSDSTSNIDTTQRQSADLMAEGFGAGVNAPFLVIVDTHEVNADSTALQPLIEAQEPEEGEFDREQAARFATYMYVTQTYNSNIDVKNAQIISVNDDFTAAQILVTPYTGPADKETPELMHVLRAQEAQIEDVTGTELGTTGFTAVQLDITEQLEDAMPVYLEHHHHHH”, for which the “soluble on expression in E. coli” value is listed as “not soluble”. For “MAPPAQPPPVAVKNTKEAWTKFMKKKAEQAVYPSKESSTLQPKYLFDASTLVLPMCFECRRASRHLEMAINLCSICRANFEAQIASRFFRHDVLLVKRKLEANQDTTNLKE” the value was “not soluble”. In the case of “VLTELVDLPGGSFRMGSTRFYPEEAPIHTVTVRAFAVERHPVTNAQFAEFVSATGYVTVAEQPLDPGLYPGVDAADLCPGAMVFCPTAGPVDLRDWRQWWDWVPGACWRHPFGRDSDIADRAGHPVVQVAYPDAVAYARWAGRRLPTEAEWEYAARGGTTATYAWGDQEKPGGMLMANTWQGRFPYRNDGALGWVGTSPVGRFPANGFGLLDMIGNVWEWTTTEFYPHHRIDPPSTACCAPVKLATAADPTISQTLKGGSHLCAPEYCHRYRPAARSPQSQDTATTHIGFRCVADPVSG”, the “soluble on expression in E. coli” value is “soluble”. Next, “IGVFLKDKQKVLVVEESEPFIEEQIRIEGNVYGKKTGHLPYGQVTSKDIDFALEHIEEEKVSRPADPGLIESRKKSRASICEDCPYLPLYNFLRISGVRVAGDMGCSVRSAPEPLSAVDVSFALGSAISVACGFERKGIAVIGDFALAHSGILGLLNAVSEGHEVLVLVLQNEVAAMTGGQKVPDLRKVIEAIVPDVSVFDMDGRKEKEQASGSELSDLITEKLALPGISVIFI”: “not soluble”. “MGSDKIHHHHHHMLTVSDVSLRFSDRKLFDEVNINFTAGNTYGLIGANGAGKSTFLKILAGDIEPTTGHIALGPDERLSVLRQNHFDYEDERVIDVVIMGNETLYSIMKEKDAIYMKEDFSDEDGVRAAELEGEFAELGGWEAESEASQLLQNLNISEELHYQNMSELANGDKVKVLLAKALFGKPDVLLLDEPTNGLDIQSITWLEDFLIDFENTVIVVSHDRHFLNKVCTHMADLDFGKIKLFVGNYDFWKESSELAARLQADRNAKAEEKIKQLQEFVARFSANASKSKQATSRKKMLDKIELEEIVPSSRKYPFVNFKAEREMGNDLLTVENLSVTIDGEKILDNISFILRPGDKTALIGQNDIQTTALIRALMGDIEYEGTIKWGVTTSRSYLPKDNSRDFASGESILEWLRQFASKEEDDNTFLRGFLGRMLFSGDEVNKSVNVLSGGEKVRVMLSKLMLLKSNVLVLDDPTNHLDLESISSLNDGLKDFKESIIFASHDHEFIQTLANHIIVLSKNGVIDRIDETYDEFLENTEVQAKVAQLWK”: the “soluble on expression in E. coli” value is listed as “not soluble”.

As for “MSTPSHLNAQPLVWGHGPRTFEVFLEPTCPYSVRAFNKLDDLLDEVGADNVTIKIRLQSQPWHLFSGVIVRCILAASTLPHGREQAHKVMQAVADHREEFEFTDHCSGPNMNATPQQIIERIERYSHVLLGAAFARPELQDVIKWHSKYARQNGIHVSPTFMVNGLVQPDLGSGDDVSVWAARIMA”, the “soluble on expression in E. coli” value was “not soluble”. Take “AIARALESTPLTGDVDWKSPLGSRSTWARLREQTRHCTFYRTYCFKASLKQLEEVTEEHVTYVGDCAALPPSPFLCVLLAYDCCSPSREEVAAHLDCSKNVYWRAIVATWIRWKESRAEQVYQLLDPLYRDYRPIKVRQKDNSYHNSYLDVFIDQLLRYRCALVSLEEPFVLDVIPFPHLPPRYELEARGVLPQREYAAPADDDDDDDAVSRPRLQQ”: the “soluble on expression in E. coli” value was “soluble”.

For the sequence “MSLKRAIIIGATSGIGKEVAQRLLSEGWQIGIAGRRQSALEEFRQIAPEQIKIQSLDVTQEYSAGKLDALIHQLGGMDLFLLSSGIGFQNMELNMEIELNTARTNVEGFTRMVDTAFSYFRNNGGGHLAVISSIAGTKGLGVAPAYSATKRFQNTYIDALEQLSHLQKLDIHFTDIRPGFVATDLLNDGKHYPMLMKTDQVGRDIVRALHRKEGHHHHHH”, the “soluble on expression in E. coli” value is reported as “not soluble”.
